Experimental data reported in patent US11492376B2, “Toxoplasma gondii GRA8-derived recombinant peptides and composition for preventing or treating cancer comprising the same” (Industry—University Cooperation Foundation Hanyang …, priority 2019, dated 2022).

Columns and labels:
[1] = tested on: HCT116 cells; assay: Mitochondrial DNA quantification by real-time PCR; assay type: cell-based, human; conditions: 1 day, via SIRT3 and PKCα
Procedure: (§1) FIGS. 4A, 4B, 4C, 4D and 4E show HCT116 cell death by rATRAM-GRA8-M/AS-induced mitochondrial activation [(A and B) HCT116 cells were incubated with WT rGRA8 or rATRAM-GRA8-M/AS and its mutants for indicated times, and then cell viability was measured with an MTT assay. […] The cells were stimulated with rATRAM-GRA8-M/AS for 1 day and subjected to enzymatic activity of OXPHOS V, and (C) MitoTracker fluorescence signals were assessed by flow cytometry. (D) A bar graph indicates a mitochondrial mass (MFI), and (E) the mtDNA content of BMDM was measured by quantitative real-time PCR. The mtDNA content was normalized by nuclear DNA. Significant differences were determined by comparison with control treatment (** P<0.01; *** P<0.001). Data represents five independent experiments with similar results].
To quantify the copy number of mitochondrial DNA (mtDNA), by the method described in Autophagy. 2014; 10:785-802: The AMPK-PPARGC1A pathway is required for antimicrobial host defense through activation of autophagy, an mtDNA to nuclear DNA (nDNA) ratio was measured. Pyruvate kinase (Pklr) was used as a marker for nDNA and NADH dehydrogenase subunit 1 (mt-Nd1) was used as a marker for mtDNA. A real-time PCR reaction was performed according to the manufacturer's instructions (QuantiFast SYBR green PCR master mix; Qiagen, 204052), and temperature cycling was performed in QuantStudio™ 3 (ABI). […]

[2] = molecular target: T1, complex V OXPHOS (Homo sapiens, UniProt P25705); assay: Mitochondria complex V OXPHOS activity assay in HCT116 cells; assay type: cell-based
T1 construct: rATRAM-GRA8-M/AS enhanced complex V OXPHOS activity, mitochondrial mass and mitochondrial DNA content via SIRT3 and PKCα in HCT116 cells; endogenous in cells; host or cells: HCT116 cells
Procedure: as §1
The activity of complex V was measured using a MitoTox Complex V OXPHOS Activity Microplate Assay kit manufactured by Abcam (ab109907, MA, Cambridge) according to the manufacturer's instructions. The activity of complex V was measured by monitoring the change in absorbance at 340 nm for 1 hour at 30° C. Oligomycin (Sigma, 04876) was used as a positive control for the assay.

[3] = tested on: HCT116 xenografts; assay: HCT116 xenograft mouse model, antitumor activity; assay type: in vivo, nude mouse
[4] = tested on: HCT116 cells; assay: MTT assay of cell viability, HCT116 cells; assay type: cell-based, human
Procedure: FIGS. 1A, 1B and 1C: confirms that rGRA8 treatment increases HCT116 cell death by mitochondria pathways [(A and B). Various cancer cells were incubated with WT rGRA8 (20 μg/ml) and its mutants for indicated times and then cell viability was measured by MTT analysis (upper) and αATP5A1, αSIRT3 or αActin immunoblotting (lower) was performed. […] The cells were incubated with WT rGRA8 for indicated times and subjected to IP with αLys-AC or αHis and IB with αATP5A1, αATP5C1, αSIRT3, αPGC-1, αPKCα or αActin. Data represents five independent experiments with similar results. Significant differences were determined by comparison with rVector treatment (** P<0.01; *** P<0.001)].
as §1
As described in Non-Patent Document 1, the cell viability for a non-treated group was measured by an MTT assay. After incubation for an indicated time, 5 mg/ml of a 3-(4,5-dimethyl thiazol-2-yl)-2,5-diphenyltetrazoliumbromide (MTT) solution was added to a medium, and the cells were further incubated for 4 hours. Subsequently, all of the medium was removed, the same volume of a dimethyl sulfoxide (DMSO) solution was added for 15 minutes to dissolve formazan. Using a UV/VIS spectrophotometer, each well of a plate was measured at 540 nm to measure relative cell viability.

[5] = tested on: ATP5A1, SIRT3 and ATP5C1; assay: Target binding and OXPHOS profile in xenograft tumor lysates; assay type: in vivo, nude mouse; conditions: day 15
Procedure: The length and width of a tumor were measured using calipers every third day for 30 days. On day 15 after administration, the mice were euthanized, and the interaction with GRA8, acetylation levels of ATP5A1 or expression of OXPHOS was analyzed (A, lower). The representative images of tumors from mice treated with rATRAM-GRA8-M/AS or mutants on day 15 (right). […] Significant differences (* P<0.05; ** P<0.01; *** P<0.001) were determined by comparison with rVector. Each group included 10 mice. Data represents two independent experiments with similar results],
For immunoprecipitation, cells were obtained, and then lysed in an NP-40 buffer supplemented with a complete protease inhibitor cocktail (Roche). After pre-purification with A/G agarose beads at 4° C. for 1 hour, a whole cell lysate was used for immunoprecipitation with indicated antibodies. Generally, 1 to 4 μg of commercial antibodies were added to 1 ml of the cell lysate, and incubated at 4° C. for 8 to 12 hours. After the addition of the protein A/G agarose beads for 6 hours, the immunoprecipitate was washed with a lysis buffer several times and heated for 5 minutes to be eluted with an SDS loading buffer.
For immunoblotting, polypeptides were subjected to electrophoresis (PAGE) with an SDS-polyacrylamide gel, and then transferred to a PVDF membrane (Bio-Rad) for separation. Immunodetection was performed with a specific antibody. Antibody binding was visualized by chemiluminescence (ECL; Millipore) and detected by a Vilber chemiluminescence analyzer (Fusion SL 3; Vilber Lourmat).

B1: (GLAGLAGLLGLEGLLGLPLGLLEGLWLGLELEGN)2-GG-ATATTTTTTR-GG-YRFTVQTTQN (protein)
chain: GLAGLAGLLGLEGLLGLPLGLLEGLWLGLELEGNGLAGLAGLLGLEGLLGLPLGLLEGLWLGLELEGNGGATATTTTTTRGGYRFTVQTTQN
modifications: His tag; rATRAM-G8-M/AS
mitochondrial DNA content [1]: enhanced
complex V OXPHOS activity ([2]; HCT116 cells, 1 day, via SIRT3 and PKCα): enhanced
mitochondrial activity (Oxphos V activity, mitochondrial mass and ATP production) in cancer cells ([2]; summary statement, FIG. 4): induced
growth of tumors which started to initially grow ([3]; 20 μg/kg, intraperitoneal injection (FIG. 6A)): inhibited the growth of tumors
growth of actively growing tumors ([3]; 20 μg/kg, intraperitoneal injection (FIG. 6B)): inhibited the growth
fold improvement of IC50 compared with rGRA8 (anti-tumor activity) ([3]; HCT116 xenograft): 500 fold
IC50 (antitumor activity in xenograft) ([3]; HCT116 xenograft mice, intraperitoneal): 20 µg/kg
tumor size and tumor growth ([3]; HCT116 xenograft, effect dependent on PKCα, SIRT3, ATP5A1 and acetylation state of K506 and K531): a decrease in tumor size and delayed tumor growth
fold improvement of IC50 compared with rGRA8 (anti-tumor activity) ([3]; HCT116 xenograft, listed as rATRAM-G8-M/AS): approximately 500 fold
fold improvement of IC50 compared with rGRA8 (cell death of cancer cell line) ([4]; HCT116 cells): 200 fold
IC50 (HCT116 cell death) ([4]; HCT116 cells, MTT (FIG. 4A)): 0.1 µg/mL
fold improvement of IC50 compared with rGRA8 (cell death of cancer cell line) ([4]; HCT116 cells, listed as rATRAM-G8-M/AS): approximately 200 fold
cell death in HCT116 cells ([4]; dose response, MTT (FIG. 4A)): induced cell death in HCT116 cells in a dose-dependent manner
ATP5A1 deacetylation level in tumor lysates [5]: increased
binding of rGRA8 to ATP5A1, SIRT3 and ATP5C1 in vivo [5]: significantly increased
mitochondrial protein biosynthesis level in tumor lysates [5]: increased
